Test results taken from article PMC7720844.

Key:
WTAP = WTAP (UniProt Q15007); experiment: co-IP, immunoblot; details: reference: wild type; sites S43,S50,S525
USP5 = USP5 (UniProt P45974); experiment: anti-myc co-IP, immunoblot; details: reference: wild type

With “METTL3 (from UniProt Q86U44) 3A (S43A/S50A/S525A)” the “binding against the reference” value (WTAP) was “weaker”.

In the case of METTL3 (from UniProt Q86U44) S43A, the “binding against the reference” value (USP5; sites S43) is reported as “weaker”.

With METTL3 (from UniProt Q86U44) S50A the “binding against the reference” value (USP5; sites S50) was “weaker”.

With METTL3 (from UniProt Q86U44) S525A the “binding against the reference” value (USP5; sites S525) was “weaker”.
